From the supplement of paper PMC9732359
± gives the uncertainty stated by the source.

Test: protein stability index of a GFP-peptide fusion (yeast GPS) (PSI 1-4); higher = more stable; sorted into four equal gates, so the index is relative within each strain
In short: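 Tiled yeast protein peptides of 17 residues were each joined downstream of GFP, on plasmids that also express Cherry. The pooled library was maintained in yeast, and mid-log cultures in leucine-free medium were sorted into four equal gates on the GFP/Cherry ratio. Plasmids from every gate were amplified by PCR and sequenced on Illumina, with barcodes linking reads to strains. The protein stability index of a peptide is its gate-number-weighted read frequency summed over the gates.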

In the case of TETSNEDEDEDDETPSC [SNU114], the protein stability index (doa10∆) is reported as 2.68 ± 0.067, the protein stability index (pdr5∆) is reported as 2.75 ± 0.058 and the protein stability index (san1∆) is reported as 3.02 ± 0.055. For the same sequence, the protein stability index (ubr1∆) was 2.74 ± 0.046.
IHEIRLNTLNNVVEIWV [SIR3] gave a protein stability index (doa10∆) of 1.38 ± 0.051, a protein stability index (pdr5∆) of 1.44 ± 0.046 and a protein stability index (san1∆) of 1.46 ± 0.086. It also gave a protein stability index (ubr1∆) of 1.55 ± 0.038.
In the case of PGEYITTIKAIFDGNYG [YMR129W/POM152], the protein stability index (doa10∆) is reported as 2.62 ± 0.066, the protein stability index (pdr5∆) is reported as 2.72 ± 0.071 and the protein stability index (san1∆) is reported as 2.77 ± 0.069. It also gave a protein stability index (ubr1∆) of 2.95 ± 0.07.
SLLLSSSFKEDCLSFAP [SSN2] gave a protein stability index (doa10∆) of 2.56 ± 0.24, a protein stability index (pdr5∆) of 3.17 ± 0.14 and a protein stability index (san1∆) of 2.76 ± 0.14. The protein stability index (ubr1∆) was 3.2 ± 0.19.
Work on TDKKAFLGALKYLPHAI [PRP8] yielded a protein stability index (doa10∆) of 2.94 ± 0.12, a protein stability index (pdr5∆) of 2.92 ± 0.097 and a protein stability index (san1∆) of 3.19 ± 0.072. The protein stability index (ubr1∆) was 2.96 ± 0.054.
In the case of AAGAGAAAGAAMIDAGA [FAS2], the protein stability index (doa10∆) is reported as 2.84 ± 0.15, the protein stability index (pdr5∆) is reported as 2.98 ± 0.12 and the protein stability index (ubr1∆) is reported as 2.99 ± 0.12.
KLSDSKTSNIESVPIYS [BRR2] showed a protein stability index (doa10∆) of 2.5 ± 0.054, a protein stability index (pdr5∆) of 2.64 ± 0.062 and a protein stability index (san1∆) of 2.33 ± 0.042. The protein stability index (ubr1∆) was 2.6 ± 0.054.
In the case of SQFNGSGNGSNPNTNTN [PGD1], the protein stability index (doa10∆) is reported as 2.48 ± 0.072, the protein stability index (pdr5∆) is reported as 2.68 ± 0.068 and the protein stability index (san1∆) is reported as 2.84 ± 0.076. The protein stability index (ubr1∆) was 2.89 ± 0.034.
HQFHDILEEKTDLHLPK [NSL1] gave a protein stability index (doa10∆) of 2.35 ± 0.07, a protein stability index (pdr5∆) of 2.29 ± 0.065 and a protein stability index (san1∆) of 2.27 ± 0.076. For the same sequence, the protein stability index (ubr1∆) was 2.38 ± 0.054.
With IREGQNQKIPDNVIVIN [SIR3] the protein stability index (doa10∆) was 2.9 ± 0.049, the protein stability index (pdr5∆) was 3.12 ± 0.065 and the protein stability index (san1∆) was 2.98 ± 0.057. It also gave a protein stability index (ubr1∆) of 3 ± 0.046.
Work on LGNEKNQASTSKRVYKI [CDC53] yielded a protein stability index (pdr5∆) of 2.83 ± 0.12 and a protein stability index (san1∆) of 2.92 ± 0.096.
With LVSVTSTLQHFQETLDS [MED8] the protein stability index (doa10∆) was 2.4 ± 0.055, the protein stability index (pdr5∆) was 2.7 ± 0.063 and the protein stability index (san1∆) was 2.43 ± 0.054. The protein stability index (ubr1∆) was 2.39 ± 0.048.
TPNFDDVLKENNDADKG [RIP1] showed a protein stability index (doa10∆) of 1.51 ± 0.093, a protein stability index (pdr5∆) of 1.35 ± 0.12 and a protein stability index (san1∆) of 1.29 ± 0.15. It also gave a protein stability index (ubr1∆) of 1.76 ± 0.092.
In the case of NKFMSIFLKRKDFTNKN [SRB8], the protein stability index (doa10∆) is reported as 2.38 ± 0.067, the protein stability index (pdr5∆) is reported as 2.2 ± 0.082 and the protein stability index (san1∆) is reported as 3.03 ± 0.058. It also gave a protein stability index (ubr1∆) of 2.58 ± 0.065.
FPGKPVDVQAPTDDKTL [YOR098C/NUP1] gave a protein stability index (doa10∆) of 2.78 ± 0.068, a protein stability index (pdr5∆) of 3.02 ± 0.1 and a protein stability index (san1∆) of 2.93 ± 0.089. It also gave a protein stability index (ubr1∆) of 2.75 ± 0.071.
For SSEILSYLSNSLDTSAS [YML103C/NUP188], the protein stability index (doa10∆) was 2.96 ± 0.091, the protein stability index (pdr5∆) was 2.7 ± 0.069 and the protein stability index (san1∆) was 2.25 ± 0.063. It also gave a protein stability index (ubr1∆) of 2.65 ± 0.055.
In the case of RSNKIKVVKTPGGILRA [RPL34A], the protein stability index (doa10∆) is reported as 2.64 ± 0.068, the protein stability index (pdr5∆) is reported as 2.12 ± 0.047 and the protein stability index (san1∆) is reported as 2.49 ± 0.064. The protein stability index (ubr1∆) was 2.2 ± 0.041.
With RIHRLARYYRTVAVLPP [RPS13] the protein stability index (doa10∆) was 1.83 ± 0.088, the protein stability index (pdr5∆) was 1.8 ± 0.06 and the protein stability index (san1∆) was 2.44 ± 0.074. For the same sequence, the protein stability index (ubr1∆) was 2.11 ± 0.046.
NPIDPFNIIREFRSAAG [YDL116W/NUP84] showed a protein stability index (doa10∆) of 3.14 ± 0.074, a protein stability index (pdr5∆) of 3.14 ± 0.07 and a protein stability index (san1∆) of 3.16 ± 0.043. The protein stability index (ubr1∆) was 3.09 ± 0.063.
For SAASIPPQQTYHFPIFN [RPN4], the protein stability index (doa10∆) was 2.55 ± 0.044, the protein stability index (pdr5∆) was 2.83 ± 0.045 and the protein stability index (san1∆) was 2.52 ± 0.035. The protein stability index (ubr1∆) was 2.68 ± 0.031.
With LPVKWETTTQFKATHIL [FAS1] the protein stability index (doa10∆) was 2.52 ± 0.06, the protein stability index (pdr5∆) was 2.32 ± 0.057 and the protein stability index (san1∆) was 2.23 ± 0.063. The protein stability index (ubr1∆) was 2.34 ± 0.04.
IGGMRVDENGDPIWQHQ [RET1] showed a protein stability index (doa10∆) of 3.13 ± 0.2, a protein stability index (pdr5∆) of 3.38 ± 0.19 and a protein stability index (san1∆) of 2.88 ± 0.26. The protein stability index (ubr1∆) was 3.42 ± 0.092.
In the case of LDNLKLKELRIDNSPQA [GRR1], the protein stability index (doa10∆) is reported as 2.65 ± 0.054, the protein stability index (pdr5∆) is reported as 2.72 ± 0.07 and the protein stability index (san1∆) is reported as 2.69 ± 0.07. For the same sequence, the protein stability index (ubr1∆) was 2.94 ± 0.042.
For PLKYTKLIAAAEDGSRS [SNF6], the protein stability index (doa10∆) was 1.3 ± 0.23, the protein stability index (pdr5∆) was 1.49 ± 0.11 and the protein stability index (san1∆) was 1.19 ± 0.21. For the same sequence, the protein stability index (ubr1∆) was 1.57 ± 0.18.
LKSGLPLSGLLFKNYRF [YMR129W/POM152] gave a protein stability index (doa10∆) of 3.65 ± 0.18, a protein stability index (pdr5∆) of 2.52 ± 0.2 and a protein stability index (san1∆) of 3.63 ± 0.057.
Sequence CDILVATPGRLIDSLEN [PRP28] has a protein stability index (doa10∆) of 3.54 ± 0.12, a protein stability index (pdr5∆) of 3.24 ± 0.11 and a protein stability index (san1∆) of 3.2 ± 0.06. It also gave a protein stability index (ubr1∆) of 3.22 ± 0.065.
In the case of IFSYLQFTSSLFKALKV [RGR1], the protein stability index (doa10∆) is reported as 1.61 ± 0.059, the protein stability index (pdr5∆) is reported as 1.3 ± 0.052 and the protein stability index (san1∆) is reported as 1.12 ± 0.11. The protein stability index (ubr1∆) was 1.05 ± 0.056.
